Data published in IntAct's records for PubMed 12361576.

B1: Cofilin-1-A (Xenopus laevis (African clawed frog)), P45695 (parent)
chain: MASGVMVSDDVIKVFNEMKVRHQLSPEDAKKRKKAVVFCLSDDKKTIILEPGKEILQGDIGCNVEDPYKTFVKMLPRNDCRYALYDALYETKETKKEDLVFVFWAPEEASLKSKMIYASSKDAIKKRLPGIKHEWQINTYEDVNDPCNLADKLGGNTVVSLEGKSVRS

Variants of: B1
Settings: with 1433z_bovin YWHAZ

effect of a mutation on the interaction	Variant
decreasing interaction	S3A
